The target in assay [1] is CEA (carcinoembryonic antigen) (UniProt P06731). Description: specificity/enzyme activity assay, CEA-coated plate, substrate in PBS pH 7.2; supernatant diluted 1:2.
Assay [2] shares this target. Put plainly: specificity/enzyme activity assay, CEA-coated plate, substrate in PBS pH 7.2; supernatant diluted 1:4.
The target is the same in assay [3]. Description: specificity/enzyme activity assay, CEA-coated plate, substrate in PBS pH 7.2; supernatant diluted 1:8.
Assay [4] has the same target. Put plainly: specificity/enzyme activity assay, CEA-coated plate, substrate in PBS pH 7.2; supernatant concentrated.
The target is the same in assay [5]. Put plainly: specificity/enzyme activity assay, CEA-coated plate, substrate in PBS pH 7.2; supernatant diluted 1:16.
Assay [6] shares this target. Put plainly: specificity/enzyme activity assay, CEA-coated plate, substrate in PBS pH 7.2; supernatant diluted 1:32.
The target is the same in assay [7]. Put plainly: specificity/enzyme activity assay, CEA-coated plate, substrate in PBS pH 7.2; supernatant diluted 1:64.
Assay [8] has the same target. Put plainly: specificity/enzyme activity assay, CEA-coated plate, substrate in PBS pH 7.2; supernatant diluted 1:128.
Assay [9] addresses GIT mucin. Description: specificity/enzyme activity assay, GIT mucin-coated plate (negative control), substrate in PBS pH 7.2; supernatant diluted 1:2.
Assay [10] addresses GIT mucin. Put plainly: specificity/enzyme activity assay, GIT mucin-coated plate (negative control), substrate in PBS pH 7.2; supernatant diluted 1:4.
In assay [11] the target is GIT mucin. Put plainly: specificity/enzyme activity assay, GIT mucin-coated plate (negative control), substrate in PBS pH 7.2; supernatant diluted 1:8.
The target in assay [12] is GIT mucin. Put plainly: specificity/enzyme activity assay, GIT mucin-coated plate (negative control), substrate in PBS pH 7.2; supernatant concentrated.
The target of assay [13] is GIT mucin. Description: specificity/enzyme activity assay, GIT mucin-coated plate (negative control), substrate in PBS pH 7.2; supernatant diluted 1:16.
The target in assay [14] is GIT mucin. Description: specificity/enzyme activity assay, GIT mucin-coated plate (negative control), substrate in PBS pH 7.2; supernatant diluted 1:32.
Assay [15] addresses GIT mucin. Description: specificity/enzyme activity assay, GIT mucin-coated plate (negative control), substrate in PBS pH 7.2; supernatant diluted 1:64.
The target of assay [16] is GIT mucin. Put plainly: specificity/enzyme activity assay, GIT mucin-coated plate (negative control), substrate in PBS pH 7.2; supernatant diluted 1:128.
For assay [17], the target named is CEA (carcinoembryonic antigen) (UniProt P06731). Put plainly: specificity/enzyme activity assay, CEA-coated plate, substrate in 0.2 M sodium acetate buffer + 0.01% BSA pH 5; supernatant diluted 1:2.
The target is the same in assay [18]. Description: specificity/enzyme activity assay, CEA-coated plate, substrate in 0.2 M sodium acetate buffer + 0.01% BSA pH 5; supernatant diluted 1:4.
The target is the same in assay [19]. Description: specificity/enzyme activity assay, CEA-coated plate, substrate in 0.2 M sodium acetate buffer + 0.01% BSA pH 5; supernatant diluted 1:8.
For assay [20] the target is unchanged. Description: specificity/enzyme activity assay, CEA-coated plate, substrate in 0.2 M sodium acetate buffer + 0.01% BSA pH 5; supernatant concentrated.
Assay [21] has the same target. Description: specificity/enzyme activity assay, CEA-coated plate, substrate in 0.2 M sodium acetate buffer + 0.01% BSA pH 5; supernatant diluted 1:16.
For assay [22] the target is unchanged. Put plainly: specificity/enzyme activity assay, CEA-coated plate, substrate in 0.2 M sodium acetate buffer + 0.01% BSA pH 5; supernatant diluted 1:32.
The target is the same in assay [23]. Description: specificity/enzyme activity assay, CEA-coated plate, substrate in 0.2 M sodium acetate buffer + 0.01% BSA pH 5; supernatant diluted 1:64.
The target is the same in assay [24]. Description: specificity/enzyme activity assay, CEA-coated plate, substrate in 0.2 M sodium acetate buffer + 0.01% BSA pH 5; supernatant diluted 1:128.
For assay [25] the target is unchanged. Description: competitive ELISA on CEA-coated plates; competitor murine MAb BW 431/26 at 5 ng/ml, detected with goat anti-mouse Ig-alkaline phosphatase. A general note: ELISA stands for enzyme-linked immunosorbent assay.

The values that follow come from patent US20030064482A1.

UniProt P06731, sequence (P06731 35-685 limits assumed): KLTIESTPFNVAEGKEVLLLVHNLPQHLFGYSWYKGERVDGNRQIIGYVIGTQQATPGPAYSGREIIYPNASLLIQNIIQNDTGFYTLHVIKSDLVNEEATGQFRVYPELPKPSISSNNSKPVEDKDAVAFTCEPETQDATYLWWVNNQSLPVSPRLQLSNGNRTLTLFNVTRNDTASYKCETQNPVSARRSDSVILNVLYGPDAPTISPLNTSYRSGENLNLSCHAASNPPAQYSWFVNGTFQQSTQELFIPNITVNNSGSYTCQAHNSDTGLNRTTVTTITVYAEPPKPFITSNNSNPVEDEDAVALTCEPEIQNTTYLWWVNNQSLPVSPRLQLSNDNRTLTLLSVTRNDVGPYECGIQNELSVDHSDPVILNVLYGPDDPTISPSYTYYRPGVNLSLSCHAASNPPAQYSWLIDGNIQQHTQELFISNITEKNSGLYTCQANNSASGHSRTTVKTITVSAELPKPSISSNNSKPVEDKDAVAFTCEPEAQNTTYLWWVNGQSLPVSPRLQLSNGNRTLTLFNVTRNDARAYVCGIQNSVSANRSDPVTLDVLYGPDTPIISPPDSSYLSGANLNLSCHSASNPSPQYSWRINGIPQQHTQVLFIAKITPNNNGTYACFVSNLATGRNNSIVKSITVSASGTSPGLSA

With “431/26 hum VH huβGlc 1H fusion protein (from UniProt P01860 1-98; P01860 99-115; P08236 23-651)”, the fluorescence of 4-methylumbelliferol liberated by plate-bound fusion protein was 2140 in assay [1]; 1200 in [2]; 618 in [3]; 2720 in assay [4]; 332 in [5]; 168 in assay [6]. Moreover, the fluorescence of 4-methylumbelliferol liberated by plate-bound fusion protein was 99.3 in assay [7]; 57.9 in assay [8]; 93.4 with GIT mucin [9]; 73.4 with GIT mucin [10]; 60.7 with GIT mucin [11]; 116 in the assay with GIT mucin [12]. For the same substance, the fluorescence of 4-methylumbelliferol liberated by plate-bound fusion protein in the assay with GIT mucin [13] was 53.7; with GIT mucin [14] it was 40.4; with GIT mucin [15], 48.2; with GIT mucin [16], 47.5; in [17], 7680; in assay [18] it was 4660. The fluorescence of 4-methylumbelliferol liberated by plate-bound fusion protein was determined as 2930 in assay [19]; 9120 in assay [20]; 1660 in [21]; 853 in assay [22]; 425 in assay [23]; 192 in [24]. The substance also yielded a molar excess of competitor at 50% inhibition in assay [25] of 200 molar excess.
In [25], humanized MAb BW 431/26 (antibody) gave a molar excess of competitor at 50% inhibition of 200 molar excess.
